Km and kcat data for 1 protein are collected here from PMC5582856, “Inverted stereocontrol of iridoid synthase in snapdragon” (The Journal of Biological Chemistry, 2017).

Substrate in this data set: C/C(C=O)=C\CC/C(C)=C/C=O
In words: purified protein. The data set is classed as biochemical, Antirrhinum majus. The settings on record: 50 μM NADPH fixed, 200 mM MOPS pH 7.0, 100 mM NaCl, 1% THF, 25 °C, 20 nM enzyme.

B1: AmISY (Am18679), Antirrhinum majus iridoid synthase (Antirrhinum majus) (protein)
chain: MSWWYRRSIGETEQKRIEINGVSPTYQSVALIVGVTGIAGSGLAETLSFSDTPGGPWKVYGVARRPCPKWLAKLNVNYVQCDIANTDETYSKVAPLTDITHIFYVSWTGSEDVALNTLMFKNILDSVIPNAPNLKHVSLQTGIKYYWGNMAEMDSTNQPHECPFYENMPRLKQDNFYYNLEDLVYDSAVRKNGLSWSIHRPALIFGFSPCSMMNTVSTLCVYAAICKHENKPLVYTGTETSWTCLWDAVDSDLLAEHFLWAATVPNAKNQAFNINNGDVFKWKHMWKVLAKEFDIEAIGYEGKEPVLLEDLMKDKDSVWDEIVKKHDLVPTKLRDIAAFWLADVVFRNKETLCSMNKNKEFGFMGFRDTTKSFVSSINKMRDFKFIP
notes: GenBank record is one of MF281392-MF281395 (not assigned in the text)
For the protein B1, the Km (commonly the substrate concentration at which the rate is half of its maximum) was 1.1 ± 0.1 µM and the kcat (usually the maximal rate divided by the concentration of active sites) is 0.72 ± 0.02 s⁻¹.
